Legend:
tinnitus = conditions: administered by IV; cited from earlier work
[1] = test system: Spiral ganglion neurons (SGNs); test: Survival of dissociated spiral ganglion neurons (Example C); type: cell-based, rat; conditions: 1 µM; compared to vehicle-only control, 0.01% DMSO; FIG. 6C
Protocol: Spiral ganglion neurons (SGNs) were harvested from P1-P3 rates, dissociated, and cultured in 96-well plates. The SGNs were treated with neurotrophins and/or antibodies at various concentrations. After about 24 hours, media was exchanged to serum-free media and the neurotrophins and/or antibodies were replenished. Cells were cultured for an additional 48-72 hours before being fixed using 4% paraformaldehyde (PFA) and stained using 4′,6-diamidino-2-phenylindole (DAPI). […] Surviving neurons were identified as cells with intact soma and at least one neurite.

[2] = test system: Méniére’s disease symptoms; conditions: infusion into the scala tympani; cited from earlier work
[3] = test system: noise-induced cochlear synaptopathy; test: Noise-induced cochlear synaptopathy in rats (Example G); type: in vivo, rat
Protocol: Animals: Male Sprague-Dawley rats (5-6 months of age) were used for efficacy studies and females (2-3 months) were used for pharmacokinetic studies.
Formulations: Human recombinant BDNF was suspended in the thermoreversible polymer Poloxamer 407 (16%) to reach a range of BDNF concentrations.
Intratympanic (IT) injection: Formulations were administered under anesthesia as a single IT injection (20 µl through the tympanic membrane into the middle ear, targeting the round window membrane (RWM).
Noise-induced cochlear synaptopathy: Rats (n= 44 per treatment group) received a single acoustic trauma (105 dB SPL, 8-16 kHz, 1h) under anesthesia. 24 hours later (Day 1) animals received a single bilateral IT injection of the treatment regimens. Auditory function (ABR and ABR wave 1 amplitude) was monitored at day 1 and then every 7 days for 28 days. At termination (Day 28), cochleae were collected and assessed for evidence of cochlear synaptopathy (IHC synaptic puncta counts).
Immunohistochemistry: Dissected cochleae were immunostained with antibodies against presynaptic (CtBP2) and postsynaptic (GluR2) proteins and MyosinVIIa to label hair cells. Cochleae were then frequency mapped and high-magnification images were obtained with a Zeiss LSM-880 confocal microscope and imaged at an interval of 0.35 µm.
Intratympanic BDNF improves Auditory Brainstem Response (ABR) thresholds and wave I amplitudes in adult rats. The Auditory Brainstem Response (ABR) is an objective test that measures hearing sensitivity and can identify abnormalities in the peripheral auditory system and the auditory pathway up through the brainstem. Adult male rats were bilaterally exposed to noise followed by an intratympanic injection of 0.05 mg/ml BDNF in P407 24 hours after noise exposure. ABR recordings were obtained at days 1, 7, 14, and 28.

noise exposed adult rats = test: Noise-induced hearing loss / synaptopathy in rats (Example A1); type: in vivo, rat
Protocol: Poloxamer 407 gel at 16% was prepared using the cold method. In brief, a 16% w/w stock solution of poloxamer 407 was prepared by slowly adding it to a cold buffer solution (10 mM PBS, pH 7.4). Sterilization was achieved by filtration. Human recombinant BDNF was suspended with an appropriate amount of poloxamer 407 solution to reach a range of concentration of 0.05 to 5.0 mg/ml BDNF.
Male rats (Charles River) approximately 10-11 months of age served as subjects (N = 6 per group). Prior to any procedures, animals were anesthetized using a combination of xylazine (10 mg/kg) and ketamine (90 mg/kg) for up to one hour via the intraperitoneal route. If needed, an intraoperative booster was administered intraperitoneally representing one-tenth of the original dose. […]
Auditory Brainstem Response (ABR) assessment (wave 1) - During the procedure, additional anesthetic (xylazine and ketamine) was administered if needed to maintain the depth of anesthesia sufficient to insure immobilization and relaxation. ABRs were recorded in an electrically and acoustically shielded chamber, one ear at a time. […] Acoustic calibration was performed with TDT software (SigCal) and thresholds were expressed as dB SPL in conditions identical to that of threshold recordings in animals. […] Wave 1 was quantified by averaging the wave 1 amplitude from intensities ranging between 60-80 dB SPL. […]

SGNs = test: SGN complexity, dissociated SGNs (Example D); type: cell-based, rat; conditions: compared to IgG-treated control, FIG. 7D
From the text: SGNs were immunostained, imaged, and batch analyzed with PerkinElmer Harmony 4.6 software. Changes in the complexities of SGNs upon treatment with various agents were examined. […] All of the images in a single well were stitched together and analyzed. SGN somas are shown in the upper right panel and SGN neurites are shown in the lower left panel. As shown in the lower right panel, each neurite tree is assigned to a single cell for analysis. Depending on the stitching, occasionally neurites will not meet the criteria due to gaps that exceed a user-defined threshold.

## CCN(CC)CC(=O)Nc1c(C)cccc1C [Lidocaine]
tinnitus
  sufferers in whom the noise associated with tinnitus is reduced or eliminated: 60-80%

## OCCN(CCO)c1ccc(C(c2ccc(Cl)cc2)c2ccc(N(CCO)CCO)cc2)cc1 [LM22b10]
[1]
  Survival of SGNs: not improved

## Cc1ccccc1C(=O)Nc1ccc(C(=O)N2CCCC(N(C)C)c3ccccc32)cc1 (stereo not drawn) [OPC-31260]
[2]
  Méniére’s disease symptoms: marked reduction

B1: brain-derived neurotrophic factor (protein, UniProt P23560 19-247, looked up)
Neurotrophic factor BDNF …: APMKEANIRGQGGLAYPGVRTHGTLESVNGPKAGSRGLTSLADTFEHVIEELLDEDQKVRPNEENNKDADLYTSRVMLSSQVPLEPPLLFLLEEYKNYLDAANMSMRVRRHSDPARRGELSVCDSISEWVTAADKKTAVDMSGGTVTVLEKVPVSKGQLKQYFYETKCNPMGYTKEGCRGIDKRHWNSQCRTTQSYVRALTMDSKKRIGWRFIRIDTSCVCTLTIKRGR
notes: Human recombinant BDNF; neurotrophin, Trk agonist on spiral ganglion neurons
[3]; adult male rats, BDNF or vehicle treatment following noise exposure, across many frequencies, FIG. 12C
  ABR wave I amplitudes: Significant improvements
[3]; adult male rats, intratympanic 0.05 mg/ml BDNF in P407 24 hours after noise exposure, ABR at days 1, 7, 14, 28, vs P407 vehicle, FIG. 12A
  recovery of initial ABR threshold shifts: more rapid recovery
[3]; adult male rats, intratympanic 0.05 mg/ml BDNF in P407 24 hours after noise exposure, vs P407 vehicle
  levels of hearing loss: reduced
[3]; adult rats after noise damage, each frequency region throughout the cochlea, FIG. 13C
  synaptic puncta (co-expression of CtBp2 and GluR2) per inner hair cell: increased
[3]; adult rats, intratympanic BDNF
  cochlear synaptopathy: repairs
Noise exposed adult rats; single intratympanic 0.005% BDNF in Poloxamer 407 24 hrs after noise, compared to vehicle, FIG. 3A
  hearing function (wave I amplitude): improved hearing function
Noise exposed adult rats; single intratympanic 0.005% BDNF in Poloxamer 407, Day 28, compared to vehicle, FIG. 3B
  number of ribbon synapses per inner hair cell: increased
SGNs
  total neurite length, total number of extremities, segments, and nodes per cell (differences): not statistically significant

B2: neurotrophin-3 (protein, UniProt P20783 139-257, looked up)
Neurotrophin-3: YAEHKSHRGEYSVCDSESLWVTDKSSAIDIRGHQVTVLGEIKTGNSPVKQYFYETRCKEARPVKNGCRGIDDKHWNSQCKTSQTYVRALTSENNKLVGWRWIRIDTSCVCALSRKIGRT
notes: neurotrophin; Trk agonist on spiral ganglion neurons
SGNs
  total neurite length, total number of extremities, segments, and nodes per cell (differences): not statistically significant

— patent publication US20230190642A1, “GROWTH FACTOR OTIC FORMULATIONS” (OTONOMY, INC., priority 2018, published 2023)
